T1: EsCas13d, nuclease-dead (Eubacterium siraeum, UniProt B0MS50, R295A;H300A;R849A;H854A)
T1 sequence: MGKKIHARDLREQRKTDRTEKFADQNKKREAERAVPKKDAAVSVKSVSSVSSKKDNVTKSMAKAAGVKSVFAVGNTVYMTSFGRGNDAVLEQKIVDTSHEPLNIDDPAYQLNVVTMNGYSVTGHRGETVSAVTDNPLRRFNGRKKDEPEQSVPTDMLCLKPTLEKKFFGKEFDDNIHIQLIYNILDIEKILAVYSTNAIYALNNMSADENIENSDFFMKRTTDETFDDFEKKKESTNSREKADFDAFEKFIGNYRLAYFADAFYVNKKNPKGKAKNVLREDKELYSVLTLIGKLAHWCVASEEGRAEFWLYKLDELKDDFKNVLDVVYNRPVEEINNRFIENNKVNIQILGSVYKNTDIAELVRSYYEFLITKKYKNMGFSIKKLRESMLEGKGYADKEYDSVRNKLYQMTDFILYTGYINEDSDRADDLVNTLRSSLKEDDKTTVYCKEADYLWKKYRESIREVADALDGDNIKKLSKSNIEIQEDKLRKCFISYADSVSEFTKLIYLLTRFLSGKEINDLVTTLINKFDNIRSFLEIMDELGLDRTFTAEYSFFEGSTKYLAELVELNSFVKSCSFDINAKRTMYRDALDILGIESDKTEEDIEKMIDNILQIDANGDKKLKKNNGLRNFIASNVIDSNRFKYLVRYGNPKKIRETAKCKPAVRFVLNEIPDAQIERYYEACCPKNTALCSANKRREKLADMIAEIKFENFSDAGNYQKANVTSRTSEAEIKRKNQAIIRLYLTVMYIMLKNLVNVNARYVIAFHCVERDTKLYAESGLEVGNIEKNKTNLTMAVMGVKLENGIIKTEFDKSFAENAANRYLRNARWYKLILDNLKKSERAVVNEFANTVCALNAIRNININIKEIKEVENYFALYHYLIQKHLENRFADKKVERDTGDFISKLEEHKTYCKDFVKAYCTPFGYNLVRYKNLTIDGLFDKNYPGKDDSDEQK

B1: target 1 C2G,U11A (mixed)
RNA 1: CACCCGUGCAAAAAUGCAGGGGUCUAAAACUGAGCGGAUAACCUCUCUAUGG
RNA 2: GGGAAUGGAUCCACAUCUACGAAUUCGUACCAUAGAGAGGAUAUCCGCUGACCGAGAUCGGAAGAGCACACGU
B2: target 1 insC 3' of 16,insC 3' of 16 (mixed)
RNA 1: CACCCGUGCAAAAAUGCAGGGGUCUAAAACUGAGCGGAUAACCUCUCUAUGG
RNA 2: GGGAAUGGAUCCACAUCUACGAAUUCGUACCAUAGACCGAGGUUAUCCGCUCACCGAGAUCGGAAGAGCACACGU
B3: target 1 C4A,U10C (mixed)
RNA 1: CACCCGUGCAAAAAUGCAGGGGUCUAAAACUGAGCGGAUAACCUCUCUAUGG
RNA 2: GGGAAUGGAUCCACAUCUACGAAUUCGUACCAUAGAGAGGUCAUCCGAUCACCGAGAUCGGAAGAGCACACGU
B4: target 1 del3,del15 (mixed)
RNA 1: CACCCGUGCAAAAAUGCAGGGGUCUAAAACUGAGCGGAUAACCUCUCUAUGG
RNA 2: GGGAAUGGAUCCACAUCUACGAAUUCGUACCAUAGAAGGUUAUCCGCCACCGAGAUCGGAAGAGCACACGU
B5: target 1 C6G,A20C (mixed)
RNA 1: CACCCGUGCAAAAAUGCAGGGGUCUAAAACUGAGCGGAUAACCUCUCUAUGG
RNA 2: GGGAAUGGAUCCACAUCUACGAAUUCGUACCCUAGAGAGGUUAUCGGCUCACCGAGAUCGGAAGAGCACACGU
B6: target 1 A9C,A16G (mixed)
RNA 1: CACCCGUGCAAAAAUGCAGGGGUCUAAAACUGAGCGGAUAACCUCUCUAUGG
RNA 2: GGGAAUGGAUCCACAUCUACGAAUUCGUACCAUAGGGAGGUUCUCCGCUCACCGAGAUCGGAAGAGCACACGU
B7: target 1 A20C,C21G (mixed)
RNA 1: CACCCGUGCAAAAAUGCAGGGGUCUAAAACUGAGCGGAUAACCUCUCUAUGG
RNA 2: GGGAAUGGAUCCACAUCUACGAAUUCGUACGCUAGAGAGGUUAUCCGCUCACCGAGAUCGGAAGAGCACACGU
B8: target 1 insG 3' of 18,insG 3' of 8 (mixed)
RNA 1: CACCCGUGCAAAAAUGCAGGGGUCUAAAACUGAGCGGAUAACCUCUCUAUGG
RNA 2: GGGAAUGGAUCCACAUCUACGAAUUCGUACCAUAGGAGAGGUUAUGCCGCUCACCGAGAUCGGAAGAGCACACGU
B9: target 1 insC 3' of 5,insA 3' of 5 (mixed)
RNA 1: CACCCGUGCAAAAAUGCAGGGGUCUAAAACUGAGCGGAUAACCUCUCUAUGG
RNA 2: GGGAAUGGAUCCACAUCUACGAAUUCGUACCAUAGAGAGGUUAUCCGCACUCACCGAGAUCGGAAGAGCACACGU
B10: target 1 U8A,A9C (mixed)
RNA 1: CACCCGUGCAAAAAUGCAGGGGUCUAAAACUGAGCGGAUAACCUCUCUAUGG
RNA 2: GGGAAUGGAUCCACAUCUACGAAUUCGUACCAUAGAGAGGUUCACCGCUCACCGAGAUCGGAAGAGCACACGU
B11: target 1 U10G,U19G (mixed)
RNA 1: CACCCGUGCAAAAAUGCAGGGGUCUAAAACUGAGCGGAUAACCUCUCUAUGG
RNA 2: GGGAAUGGAUCCACAUCUACGAAUUCGUACCAGAGAGAGGUGAUCCGCUCACCGAGAUCGGAAGAGCACACGU
B12: target 1 C2A,A20C (mixed)
RNA 1: CACCCGUGCAAAAAUGCAGGGGUCUAAAACUGAGCGGAUAACCUCUCUAUGG
RNA 2: GGGAAUGGAUCCACAUCUACGAAUUCGUACCCUAGAGAGGUUAUCCGCUAACCGAGAUCGGAAGAGCACACGU
B13: target 1 insA 3' of 22,insA 3' of 7 (mixed)
RNA 1: CACCCGUGCAAAAAUGCAGGGGUCUAAAACUGAGCGGAUAACCUCUCUAUGG
RNA 2: GGGAAUGGAUCCACAUCUACGAAUUCGUACACAUAGAGAGGUUAUCACGCUCACCGAGAUCGGAAGAGCACACGU
B14: target 1 insA 3' of 22,insC 3' of 14 (mixed)
RNA 1: CACCCGUGCAAAAAUGCAGGGGUCUAAAACUGAGCGGAUAACCUCUCUAUGG
RNA 2: GGGAAUGGAUCCACAUCUACGAAUUCGUACACAUAGAGACGGUUAUCCGCUCACCGAGAUCGGAAGAGCACACGU
B15: target 1 U19C,C21U (mixed)
RNA 1: CACCCGUGCAAAAAUGCAGGGGUCUAAAACUGAGCGGAUAACCUCUCUAUGG
RNA 2: GGGAAUGGAUCCACAUCUACGAAUUCGUACUACAGAGAGGUUAUCCGCUCACCGAGAUCGGAAGAGCACACGU
B16: target 1 A9G,U19G (mixed)
RNA 1: CACCCGUGCAAAAAUGCAGGGGUCUAAAACUGAGCGGAUAACCUCUCUAUGG
RNA 2: GGGAAUGGAUCCACAUCUACGAAUUCGUACCAGAGAGAGGUUGUCCGCUCACCGAGAUCGGAAGAGCACACGU
B17: target 1 G12U,U19G (mixed)
RNA 1: CACCCGUGCAAAAAUGCAGGGGUCUAAAACUGAGCGGAUAACCUCUCUAUGG
RNA 2: GGGAAUGGAUCCACAUCUACGAAUUCGUACCAGAGAGAGUUUAUCCGCUCACCGAGAUCGGAAGAGCACACGU
B18: target 1 insC 3' of 5,insA 3' of 2 (mixed)
RNA 1: CACCCGUGCAAAAAUGCAGGGGUCUAAAACUGAGCGGAUAACCUCUCUAUGG
RNA 2: GGGAAUGGAUCCACAUCUACGAAUUCGUACCAUAGAGAGGUUAUCCGCCUCAACCGAGAUCGGAAGAGCACACGU
B19: target 1 insU 3' of 20,insG 3' of 14 (mixed)
RNA 1: CACCCGUGCAAAAAUGCAGGGGUCUAAAACUGAGCGGAUAACCUCUCUAUGG
RNA 2: GGGAAUGGAUCCACAUCUACGAAUUCGUACCAUUAGAGAGGGUUAUCCGCUCACCGAGAUCGGAAGAGCACACGU
B20: target 1 G17C,C21U (mixed)
RNA 1: CACCCGUGCAAAAAUGCAGGGGUCUAAAACUGAGCGGAUAACCUCUCUAUGG
RNA 2: GGGAAUGGAUCCACAUCUACGAAUUCGUACUAUACAGAGGUUAUCCGCUCACCGAGAUCGGAAGAGCACACGU
B21: target 1 C6A,C21A (mixed)
RNA 1: CACCCGUGCAAAAAUGCAGGGGUCUAAAACUGAGCGGAUAACCUCUCUAUGG
RNA 2: GGGAAUGGAUCCACAUCUACGAAUUCGUACAAUAGAGAGGUUAUCAGCUCACCGAGAUCGGAAGAGCACACGU
B22: target 1 U8C,A16U (mixed)
RNA 1: CACCCGUGCAAAAAUGCAGGGGUCUAAAACUGAGCGGAUAACCUCUCUAUGG
RNA 2: GGGAAUGGAUCCACAUCUACGAAUUCGUACCAUAGUGAGGUUACCCGCUCACCGAGAUCGGAAGAGCACACGU
B23: target 1 C6G,C7U (mixed)
RNA 1: CACCCGUGCAAAAAUGCAGGGGUCUAAAACUGAGCGGAUAACCUCUCUAUGG
RNA 2: GGGAAUGGAUCCACAUCUACGAAUUCGUACCAUAGAGAGGUUAUUGGCUCACCGAGAUCGGAAGAGCACACGU
B24: target 1 insG 3' of 16,insA 3' of 15 (mixed)
RNA 1: CACCCGUGCAAAAAUGCAGGGGUCUAAAACUGAGCGGAUAACCUCUCUAUGG
RNA 2: GGGAAUGGAUCCACAUCUACGAAUUCGUACCAUAGAGGAAGGUUAUCCGCUCACCGAGAUCGGAAGAGCACACGU
B25: target 1 C4A,C22U (mixed)
RNA 1: CACCCGUGCAAAAAUGCAGGGGUCUAAAACUGAGCGGAUAACCUCUCUAUGG
RNA 2: GGGAAUGGAUCCACAUCUACGAAUUCGUAUCAUAGAGAGGUUAUCCGAUCACCGAGAUCGGAAGAGCACACGU
B26: target 1 insA 3' of 12,insG 3' of 11 (mixed)
RNA 1: CACCCGUGCAAAAAUGCAGGGGUCUAAAACUGAGCGGAUAACCUCUCUAUGG
RNA 2: GGGAAUGGAUCCACAUCUACGAAUUCGUACCAUAGAGAGGAUGUAUCCGCUCACCGAGAUCGGAAGAGCACACGU
B27: target 1 G5U,C6A (mixed)
RNA 1: CACCCGUGCAAAAAUGCAGGGGUCUAAAACUGAGCGGAUAACCUCUCUAUGG
RNA 2: GGGAAUGGAUCCACAUCUACGAAUUCGUACCAUAGAGAGGUUAUCAUCUCACCGAGAUCGGAAGAGCACACGU

The source of these data is publication PMC10786891, “Massively parallel profiling of RNA-targeting CRISPR-Cas13d”.

As usually defined, the Kd is the constant that tells how readily two partners part at equilibrium. High values mean lower affinity, low ones higher affinity.

The data set concerns the target T1, EsCas13d, nuclease-dead. Description: crRNA (strand 1, pre-loaded); Mg2+; 40 mM Tris-HCl pH 7.5, 150 mM NaCl, 6 mM MgCl2, 1 mM DTT, 0.1% Tween-20, 0.2 mg/ml BSA; 25 C; 10 min per concentration, then washed. The settings on record: tags: His6-TwinStrep-SUMO cleaved; N-terminal SNAP kept (SNAP-Surface 488); label: 3' end held by stalled T7 RNA polymerase.
In turn, B1 registered a Kd of 13.6 ± 1.1 nM.
Turning to B2, the Kd worked out at 72 ± 22 nM.
The same measure for B3: 5.53 ± 0.31 nM; for B4: 30.2 ± 3.3 nM.
On to B5, for which the Kd turned out to be 36 ± 6 nM.
The same measure for B6: 68 ± 27 nM; for B7: 57 ± 26 nM; for B8: 50 ± 4 nM.
As to B9, the Kd stood at 11.5 ± 0.5 nM.
As for B10, the figure is 8.9 ± 0.4 nM; as for B11, 90 ± 40 nM; as for B12, 36 ± 4 nM.
The same measure for B13: 8 ± 0.6 nM; for B14: 36 ± 6 nM.
Take B15: binding was put at a Kd of 5.98 ± 0.2 nM.
As for B16, the figure is 49 ± 14 nM; as for B17, 35 ± 5 nM.
In turn, B18 had a Kd of 7.87 ± 0.33 nM.
The molecule B19 registered a Kd of 18.9 ± 0.9 nM.
With B20, the Kd turned out to be 7.6 ± 0.7 nM.
Take B21: the affinity, expressed as Kd, was 23.5 ± 1.7 nM.
Molecule B22 returned a Kd of 59 ± 8 nM.
The molecule B23 gave an equilibrium dissociation constant (Kd) of 8.06 ± 0.32 nM.
With B24, the Kd was 17.5 ± 0.9 nM.
B25: the Kd amounted to 9.2 ± 1 nM.
As for B26, the figure is 49 ± 6 nM.
Take B27: the affinity, expressed as Kd, was 24.3 ± 1.6 nM.
